The source of these data is patent US8124835B2, “Acyl-coa-dependent diacylglycerol acyltransferas 1 (DGAT1) gene from Tropaeolum majus, protein encoded thereby and uses thereof” (National Research Council of Canada, priority 2006, dated 2012).

For the test, the system named is DGAT activity. The experiment in a line: TmDGAT1 expressed in Sf9 insect cells, DGAT assay of membrane fractions. The class given is biochemical, Tropaeolum majus. The conditions noted are these: Sf9 total membrane fraction (100,000×g pellet), 48 hours; sn-1,2-diolein + [1-14C]oleoyl-CoA. Here is the method: FIG. 7. Expression of T. majus DGAT1 in baculovirus insect cells. TmDGAT1 activity was determined using membranes isolated from insect cells infected with wild type baculovirus (Control) and TmDGAT1 recombinant baculovirus in the presence of sn-1,2-diolein and [1-^14C]oleoyl-CoA.
The coding region of TmDGAT1 (SEQ. ID. NO: 2) was sub-cloned into pFastBAC for expression of the protein in an insect cell expression system (Bac-to-Bac baculovirus expression system, Invitrogen). Escherichia coli DH10Bac cells were transformed with the construct to generate recombinant bacmid DNA, and then the bacmid DNA was isolated and used to transfect Sf9 insect cells. The virus stock harvested from the transfected cells was used to re-infect fresh Sf9 insect cells. Insect cells (2.5×10^6 per 25 cm^2 dish) were infected with virus and were collected at 48 h by centrifugation and washed twice with PBS (Hobbs et al., 1999). […]
DGAT assays were conducted at pH 7.4, with shaking at 100 rev/min in a water bath at 30° C. for 60 min. […] The ^14C-labelled TAGs were isolated by TLC on silica gel G plates developed in hexane:diethyl ether:acetic acid (70:30:1 v/v/v/), the radiolabelled TAG bands visualized on a Bioscan AR-2000 radio-TLC scanner using Win-Scan 2D© software (Bioscan Inc., Washington D.C., USA) and the bands scraped and quantified as described by Taylor et al. (1991). […]

B1: TmDGAT1: Tropaeolum majus acyl-CoA-dependent diacylglycerol acyltransferase 1, 518 amino acids (SEQ ID NO: 3), encoded by ORF SEQ ID NO: 2 (protein, listed as Tropaeolum majus)
chain: MAVAESSQNTTTMSGHGDSDLNNFRRRKPSSSVIEPSSSGFTSTNGVPATGHVAENRDQDRVGAMENATGSVNLIGNGGGVVIGNEEKQVGETDIRFTYRPSFPAHRRVRESPLSSDAIFKQSHAGLFNLCIVVLIAVNSRLIIENLMKYGWLIDTGFWFSSRSLGDWSIFMCCLTLPIFPLAAFIVEKLVQRNHISELVAVLLHVIVSTAAVLYPVIVILTCDSVYMSGVVLMLFGCIMWLKLVSYAHTSSDIRTLAKSGYKGDAHPNSTIVSCSYDVSLKSLAYFMVAPTLCYQPSYPRSSCIRKGWVVRQFVKLIVFIGLMGFIIEQYINPIVRNSKHPLKGDFLYAIERVLKLSVPNLYVWLCMFYSFFHLWLNILAELLRFGDREFYKDWWNAKTVAEYWKMWNMPVHRWMVRHLYFPCLRNGIPKEGAIIIAFLVSGAFHELCIAVPCHVFKLWAFIGIMFQVPLVLITNYLQEKFSNSMVGNMIFWFIFCILGQPMCVLLYYHDLINLKEK
Turning to B1, the “DGAT activity relative to membrane fraction from control cells infected with vector only” value is given as “about 10 fold”.
